This assay has as its target CD3 on human CD3+ Jurkat T cells (human) (UniProt P07766). The assay is described as follows: cell-based or functional assay.

Sequence of CD3 on human CD3+ Jurkat T cells (human) (P07766 23-207): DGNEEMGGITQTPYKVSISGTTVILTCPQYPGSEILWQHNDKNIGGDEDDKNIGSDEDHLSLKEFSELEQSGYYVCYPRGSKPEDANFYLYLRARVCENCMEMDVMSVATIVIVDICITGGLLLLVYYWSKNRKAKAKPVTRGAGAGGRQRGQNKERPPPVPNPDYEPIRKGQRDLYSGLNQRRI

“v2171, bivalent anti-CD3 pHAb conjugated mAb (UCHT1) (antibody)” returned an EC50 (nM) of internalization of the pHAb conjugate, Jurkat cells (CD19-, CD3+) of 13.2 nM and an internalization of the pHAb conjugate by Jurkat cells of 2 nM.

The values above are taken from patent US20180193477A1.
